Patent publication US20260250320A1, “LIPIDATED PEPTIDE INHIBITORS OF INTERLEUKIN-23 RECEPTOR” (Janssen Pharmaceutica NV, priority 2023, published 2026)
*1 amine or outer side, *2 acyl side, *3 side chain or, on linkers, in order; H or OH if unused. Bridges are numbered along the chain shown (N, C = ends). Primed or numbered codes have the meaning given here. Side-chain parts run from the residue outwards. [ ]: non-standard residue; d: D form. PEG2′ = PEG2 spacer unit (not further defined); Trp(7-Me) = Cc1cccc2c(C[C@H](N)C(=O)O)c[nH]c12; γGlu = O=C(O)[C@H](CCC(=O)[*:2])N[*:1]; 2Nal = N[C@@H](Cc1ccc2ccccc2c1)C(=O)O; AEF = NCCOc1ccc(C[C@H](N)C(=O)O)cc1; 3Pal = N[C@@H](Cc1cccnc1)C(=O)O; succiniccarn = not defined here; NMeK = CN[C@@H](CCCCN)C(=O)O; Pen = CC(C)(S)[C@H](N)C(=O)O; PEG2(3) = not defined here; dAEF′ = not defined here; Thp = NC1(C(=O)O)CCOCC1; Sar = CNCC(=O)O

T1: IL-23R (Homo sapiens, UniProt Q5VWK5)
T1 construct: HEK293 cells containing IL-23R, IL-12Rβ1 and a firefly luciferase reporter gene driven by a STAT-inducible promoter (Promega); host or cells: HEK293
T1 sequence (Q5VWK5 24-629): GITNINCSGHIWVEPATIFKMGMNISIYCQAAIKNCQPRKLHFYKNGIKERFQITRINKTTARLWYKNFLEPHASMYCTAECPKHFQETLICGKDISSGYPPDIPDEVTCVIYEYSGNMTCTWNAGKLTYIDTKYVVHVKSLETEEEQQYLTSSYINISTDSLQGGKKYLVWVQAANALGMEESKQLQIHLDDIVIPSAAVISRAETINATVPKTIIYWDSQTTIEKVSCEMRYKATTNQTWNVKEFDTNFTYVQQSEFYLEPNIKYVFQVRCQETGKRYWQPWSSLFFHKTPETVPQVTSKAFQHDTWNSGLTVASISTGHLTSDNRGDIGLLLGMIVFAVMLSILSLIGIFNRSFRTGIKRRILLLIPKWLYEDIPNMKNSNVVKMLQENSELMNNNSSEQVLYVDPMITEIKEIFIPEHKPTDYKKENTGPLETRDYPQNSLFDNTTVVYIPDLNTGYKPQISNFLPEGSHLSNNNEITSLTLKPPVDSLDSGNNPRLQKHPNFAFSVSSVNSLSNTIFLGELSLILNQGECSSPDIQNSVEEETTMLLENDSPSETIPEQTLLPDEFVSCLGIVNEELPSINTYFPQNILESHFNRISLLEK

T2: interleukin-23 receptor (IL-23R) (UniProt Q5VWK5 24-629, limits assumed)
T2 sequence (looked up): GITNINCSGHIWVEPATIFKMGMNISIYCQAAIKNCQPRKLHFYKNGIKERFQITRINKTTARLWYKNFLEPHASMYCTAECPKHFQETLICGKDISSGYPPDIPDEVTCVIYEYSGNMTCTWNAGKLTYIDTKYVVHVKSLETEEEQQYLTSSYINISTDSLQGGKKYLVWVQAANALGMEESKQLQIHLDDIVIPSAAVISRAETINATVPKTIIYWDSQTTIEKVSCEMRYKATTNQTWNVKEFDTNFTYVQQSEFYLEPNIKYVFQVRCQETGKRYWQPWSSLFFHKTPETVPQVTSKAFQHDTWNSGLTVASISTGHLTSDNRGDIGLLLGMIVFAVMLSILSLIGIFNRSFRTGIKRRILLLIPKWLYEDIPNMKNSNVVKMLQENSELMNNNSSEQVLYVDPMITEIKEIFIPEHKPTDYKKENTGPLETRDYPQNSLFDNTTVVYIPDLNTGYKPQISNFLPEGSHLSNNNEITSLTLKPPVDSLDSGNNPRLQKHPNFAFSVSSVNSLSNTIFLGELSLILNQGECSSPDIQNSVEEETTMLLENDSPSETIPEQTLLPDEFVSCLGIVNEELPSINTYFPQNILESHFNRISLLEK


Biological target: T1, IL-23R
Assay: IL23R Reporter Assay
Type: cell-based
Details: HEK293 cells containing IL-23R, IL-12Rβ1 and STAT-inducible firefly luciferase reporter; 10 ng/mL IL-23 (EC90); 5 h
In short: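 HEK293 cells carrying IL-23R, IL-12Rβ1 and a STAT-driven firefly luciferase reporter (4000 cells/well) received compound, then 10 ng/mL IL-23 solution (EC90), and were incubated for 5 h at 37° C. BioGlo luminescence was normalised to IL-23 alone (0%) and 30 μM control inhibitor (100%). IC50 came from a 4-parameter Hill fit.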

IC50 [nM] | Molecule
50 to 500 | CC(=O)NCCCC[C@@H]1NC(=O)[C@H](Cc2c[nH]c3c(C)cccc23)NC(=O)[C@H]([C@@H](C)O)NC(=O)[C@H](CC(N)=O)NC(=O)[C@@H](NC(=O)[C@H](CCCCNC(=O)COCCOCCNC(=O)COCCOCCNC(=O)CC[C@H](NC(=O)CCCCCCCCCCCCCCCCC(=O)O)C(=O)O)CCCNC(=N)N)C(C)(C)SSC(C)(C)[C@@H](C(=O)N[C@@H](Cc2ccc(OCCN)cc2)C(=O)N[C@@H](Cc2ccc3ccccc3c2)C(=O)NC2(C(=O)N[C@@H](CCCCNC(=O)CCC(=O)N[C@H](CC(=O)O)C[N+](C)(C)C)C(=O)N[C@@H](CC(N)=O)C(=O)N[C@@H](Cc3cccnc3)C(=O)N(C)CC(N)=O)CCOCC2)NC1=O [compound 32, HOC18gEPEG2PEG2CO-r-Pen(3)-N-T-7MeW-K(Ac)-Pen(3)-AEF(d)-2Nal-THP-E-N-3Pya-Sar-CONH2]

Biological target: T2, interleukin-23 receptor (IL-23R)
Assay: cell-based or functional assay
Details: not given

PBMC pSTAT3 IC50 [nM] | Molecule
< 0.5 | succiniccarn-[dR][Pen]NT[Trp(7-Me)]K([PEG2′-PEG2′-γGlu-C18OH])[Pen][AEF][2Nal][Thp]EN[3Pal][Sar]-NH2 (disulfide 2-7 (inferred); reading uncertain; also: printed as succiniccarn-r-Pen(3)-N-T-7MeW-K(PEG2PEG2gEC18OH)-Pen(3)-AEF-2Nal-THP-E-N-3Pya-Sar-CONH2) [SEQ ID NO: 20]
< 0.5 | Ac-[dR][Pen]NT[Trp(7-Me)]K(Ac)[Pen]X[2Nal][Thp]EN[3Pal][NMeK]-NH2 (disulfide 2-7 (inferred); not fully specified (residues 8, 14); printed as MeCO-r-Pen(3)-N-T-7MeW-K(Ac)-Pen(3)-AEF(d)-2Nal-THP-E-N-3Pya-NMeK(PEG2PEG2gEC18OH)-CONH2) [SEQ ID NO: 16]
< 0.5 | Ac-K[Pen]NT[Trp(7-Me)]K(Ac)[Pen]X[2Nal][Thp]EN[3Pal][Sar]-NH2 (disulfide 2-7 (inferred); not fully specified (residues 1, 8); printed as MeCO-k(PEG2PEG2gEC18OH)-Pen(3)-N-T-7MeW-K(Ac)-Pen(3)-AEF(d)-2Nal-THP-E-N-3Pya-Sar-CONH2) [SEQ ID NO: 17]

Continued, molecule first:

Molecule | PBMC pSTAT3 IC50 [nM]
succiniccarn-[dR][Pen]K([PEG2(3)-PEG2(3)-γGlu-C18OH])T[Trp(7-Me)]K(Ac)[Pen][AEF][2Nal][Thp]EN[3Pal][Sar]-NH2 (disulfide 2-7 (inferred); reading uncertain; also: printed as succiniccarn-r-Pen(3)-K(PEG2PEG2gEC18OH)-T-7MeW-K(Ac)-Pen(3)-AEF-2Nal-THP-E-N-3Pya-Sar-CONH2) [SEQ ID NO: 18] | < 0.5
XNTXXXXXXXNXXK (not fully specified; MeCO-Pen(3)-N-T-7MeW-K(Ac)-Pen(3)-AEF-2Nal-THP-K(Ac)-N-3Pya-Sar-K(PEG2NMePEG2NMegENMeC18Tetrazole)-CONH2) [SEQ ID NO: 2] | < 0.5
Ac-[dR][Pen]NT[Trp(7-Me)]K(Ac)[Pen][dAEF′][2Nal][Thp]EN[3Pal][Sar]K([PEG2′-PEG2′-γGlu-C18OH])-NH2 (disulfide 2-7 (inferred); reading uncertain; also: printed as MeCO-r-Pen(3)-N-T-7MeW-K(Ac)-Pen(3)-AEF(d)-2Nal-THP-E-N-3Pya-Sar-K(PEG2PEG2gEC18OH)-CONH2) [SEQ ID NO: 23] | < 0.5
Ac-[dR][Pen]NT[Trp(7-Me)]K[Pen][AEF][2Nal][Thp]EN[3Pal]X-NH2 (disulfide 2-7 (inferred); not fully specified (residues 6, 14); printed as MeCO-r-Pen(3)-N-T-7MeW-K(PEG2PEG2gEC18OH)-Pen(3)-AEF-2Nal-THP-E-N-3Pya-NMeK(d)-CONH2) [SEQ ID NO: 19] | < 0.5

Test system: IL-23-stimulated phosphorylated STAT3 in peripheral blood mononuclear cells (PBMCs)
Assay: PBMC pSTAT3 Assay
Type: cell-based
Details: PBMCs from healthy donors; 30 min preincubation with peptide; IL-23 5 ng/mL for 30 min; phospho-STAT3 by MSD
In short: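 Healthy-donor PBMCs expanded 4 days on anti-CD3 with 100 ng/mL IL-1β, starved ~4 h in RPMI-0.1% BSA, preincubated 30 min with peptide, then stimulated 30 min at 37 °C with 5 ng/mL IL-23. Lysate pSTAT3 measured by MSD phospho-STAT panel; IC50 derived.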

Molecule | IC50 [nM]
CC(=O)NCCCC[C@@H]1NC(=O)[C@H](Cc2c[nH]c3c(C)cccc23)NC(=O)[C@H]([C@@H](C)O)NC(=O)[C@H](CC(N)=O)NC(=O)[C@@H](NC(=O)[C@H](CCCCNC(=O)COCCOCCNC(=O)COCCOCCNC(=O)CC[C@H](NC(=O)CCCCCCCCCCCCCCCCC(=O)O)C(=O)O)CCCNC(=N)N)C(C)(C)SSC(C)(C)[C@@H](C(=O)N[C@@H](Cc2ccc(OCCN)cc2)C(=O)N[C@@H](Cc2ccc3ccccc3c2)C(=O)NC2(C(=O)N[C@@H](CCCCNC(=O)CCC(=O)N[C@H](CC(=O)O)C[N+](C)(C)C)C(=O)N[C@@H](CC(N)=O)C(=O)N[C@@H](Cc3cccnc3)C(=O)N(C)CC(N)=O)CCOCC2)NC1=O [compound 32, HOC18gEPEG2PEG2CO-r-Pen(3)-N-T-7MeW-K(Ac)-Pen(3)-AEF(d)-2Nal-THP-E-N-3Pya-Sar-CONH2] | < 0.5
